{"source": "paper PMC3264736", "binders": {"B1": {"name": "TAATCC consensus DNA (dsDNA)", "DNA 1": "GCTCTAATCCCCG", "DNA 2": "CGGGGATTAGAGC"}}, "target": "Pitx2 homeodomain wild-type (UniProt Q99697 85-144)", "assay": "ITC", "data": [{"binder": "B1", "values": [{"measurement": "Kd", "result": 66, "unit": "nM"}]}]}
